Test results from US20230183352A1 (published 2023).
Where two headings read alike, the source gives them in different places.

Key:
[1] = target: T1, Claudin 18.2 (CLDN18.2), expressed on CHOS-CLDN 18.2 / HEK293-CLDN 18.2 / HCC827-CLDN 18.2 cells (human, UniProt P56856-2 1-261); experiment: cell-based or functional assay
[2] = target: T1, Claudin 18.2 (CLDN18.2), expressed on …; experiment: FACS, CHOS-CLDN18.2 cells
Procedure: (§1) The initial concentration of the antibody was 20 μg/ml, it was diluted at 1:4, and incubated at 4° C. for 60 min.

[3] = target: T1, Claudin 18.2 (CLDN18.2), expressed on …; experiment: FACS, CHOS-CLDN18.2 cells; remark: listed apart in the source
Procedure: as §1

[4] = target: T1, Claudin 18.2 (CLDN18.2), expressed on …; experiment: FACS, CHOS-CLDN18.2 cells, 5 µg/ml
Procedure: as §1

[5] = target: T1, Claudin 18.2 (CLDN18.2), expressed on …; experiment: FACS, CHOS-CLDN18.2 cells, 20 µg/ml
Procedure: as §1

[6] = target: T1, Claudin 18.2 (CLDN18.2), expressed on …; experiment: FACS, CHOS-CLDN18.2 cells, 20 µg/ml; remark: listed apart in the source
Procedure: as §1

[7] = target: T1, Claudin 18.2 (CLDN18.2), expressed on …; experiment: FACS, CHOS-CLDN18.2 cells, 0.313 µg/ml
Procedure: as §1

[8] = target: T1, Claudin 18.2 (CLDN18.2), expressed on …; experiment: FACS, CHOS-CLDN18.2 cells, 0.005 µg/ml
Procedure: as §1

[9] = target: T1, Claudin 18.2 (CLDN18.2), expressed on …; experiment: FACS, CHOS-CLDN18.2 cells, 0.078 µg/ml
Procedure: as §1

[10] = target: T1, Claudin 18.2 (CLDN18.2), expressed on …; experiment: FACS, CHOS-CLDN18.2 cells, 0.005 µg/ml; remark: listed apart in the source
Procedure: as §1

[11] = target: T1, Claudin 18.2 (CLDN18.2), expressed on …; experiment: FACS, CHOS-CLDN18.2 cells, 0.078 µg/ml; remark: listed apart in the source
Procedure: as §1

[12] = target: T1, Claudin 18.2 (CLDN18.2), expressed on …; experiment: FACS, CHOS-CLDN18.2 cells, 0.313 µg/ml; remark: listed apart in the source
Procedure: as §1

[13] = target: T1, Claudin 18.2 (CLDN18.2), expressed on …; experiment: FACS, CHOS-CLDN18.2 cells, 1.250 µg/ml
Procedure: as §1

[14] = target: T1, Claudin 18.2 (CLDN18.2), expressed on …; experiment: FACS, CHOS-CLDN18.2 cells, 0.005 µg/ml; remark: listed apart in the source
Procedure: as §1

[15] = target: T1, Claudin 18.2 (CLDN18.2), expressed on …; experiment: FACS, CHOS-CLDN18.2 cells, 1.250 µg/ml; remark: listed apart in the source
Procedure: as §1

[16] = target: T1, Claudin 18.2 (CLDN18.2), expressed on …; experiment: FACS, CHOS-CLDN18.2 cells, 0 µg/ml (background)
Procedure: as §1

[17] = target: T1, Claudin 18.2 (CLDN18.2), expressed on …; experiment: FACS, MFI on CHOS-CLDN18.2 over MFI on CHOS-CLDN18.1, 10 µg/ml
Procedure: The initial concentration of the antibody was 20 μg/mkit was diluted at 1:4, and incubated at 4° C. for 60 min.

B1: QP024025 (antibody, human IgG1, V domains shown)
VH: QVQLQQPGAELVRPGASVKLSCKASGYTFTSYWINWVKQRPGQGLEWIGNIYPSDSYTNYNQKFKDKATLTVDKSSSTAYMQLSSPTSEDSAVYYCTRSWRGNSFDYWGQGTTLTVSS
VL: DIVMTQSPSSLTVTAGEKVTMSCKSSQSLLNSGNQKNYLTWYQQKPGQPPKLLIYWASTRESGVPDRFTGSGSGTDFTLTISSVQAEDLAVYYCQNDYSYPFTFGSGTKLEIK
notes: also called IMAB362; 175D10(IMAB362)
EC50 of killing, ADCC (PBMC, HEK293-CLDN18.2 cells) [1]: 0.0156 µg/mL
Killing percentage, ADCC (PBMC, HEK293-CLDN18.2 cells), 0 µg/ml [1]: -1.33%
Killing percentage, ADCC (PBMC, HEK293-CLDN18.2 cells), 0.0001024 µg/ml [1]: -2.74%
Killing percentage, ADCC (PBMC, HEK293-CLDN18.2 cells), 0.000512 µg/ml [1]: 1.7%
Killing percentage, ADCC (PBMC, HEK293-CLDN18.2 cells), 0.00256 µg/ml [1]: 1.49%
Killing percentage, ADCC (PBMC, HEK293-CLDN18.2 cells), 0.0128 µg/ml [1]: 11%
Killing percentage, ADCC (PBMC, HEK293-CLDN18.2 cells), 0.064 µg/ml [1]: 22%
Killing percentage, ADCC (PBMC, HEK293-CLDN18.2 cells), 0.32 µg/ml [1]: 28.2%
Killing percentage, ADCC (PBMC, HEK293-CLDN18.2 cells), 1.6 µg/ml [1]: 30%
Killing percentage, ADCC (PBMC, HEK293-CLDN18.2 cells), 8 µg/ml [1]: 26.2%
Killing percentage, ADCC (PBMC, HEK293-CLDN18.2 cells), 40 µg/ml [1]: 21.6%
EC50 [2]: 0.27 µg/mL
max [2]: 88600
EC50 [3]: 0.27 µg/mL
max [3]: 88600
FACS reading [4]: 105000
FACS reading [5]: 72300
FACS reading [6]: 72300
FACS reading [7]: 51000
FACS reading [8]: 2830
FACS reading [9]: 18200
FACS reading [10]: 2830
FACS reading [11]: 18200
FACS reading [12]: 51000
FACS reading [13]: 63700
FACS reading [14]: 2830
FACS reading [15]: 63700
FACS reading [16]: 732
CLDN18.2/CLDN18.1 (MFI ratio) [17]: 104
